Measured values taken from the supplement of paper PMC5998384.

Tests used:
[1] = system: HeLa Kyoto; experiment: melting temperature (median over replicates), in situ; higher = more thermally stable
[2] = system: HeLa Kyoto; experiment: solubility in G1/S (NP-40 vs SDS abundance) (log2 ratio); higher = more soluble; details: cell cycle stage: G1/S
[3] = system: HeLa Kyoto; experiment: solubility change mitosis vs G1/S (difference of NP-40 vs SDS log2 ratios) (log2 ratio difference); higher = more soluble in mitosis
[4] = system: HeLa Kyoto; experiment: thermal stability score vs G1/S (z-score of summed log2 fold changes over temperatures); higher = more thermally stable than in G1/S
[5] = cell cycle stage: early G1 (4.5 h after nocodazole release)
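For melting temperature (median over replicates), in situ in this document: HeLa Kyoto cells synchronized by double thymidine or nocodazole block, proteins quantified by TMT10plex mass spectrometry, three independent biological replicates.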
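For solubility change mitosis vs G1/S (difference of NP-40 vs SDS log2 ratios) in this document: synchronized HeLa Kyoto cells (double thymidine block for G1/S, nocodazole release for mitosis), protein amounts in NP-40 versus SDS lysates quantified by mass spectrometry, three biological replicates.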
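For solubility in G1/S (NP-40 vs SDS abundance) in this document: HeLa Kyoto cells arrested at G1/S by double thymidine block, proteins quantified by TMT10plex mass spectrometry in mild NP-40 versus SDS extracts, three biological replicates.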
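For thermal stability score vs G1/S (z-score of summed log2 fold changes over temperatures) in this document: synchronized HeLa Kyoto cells, proteins quantified by TMT10plex mass spectrometry, three biological replicates, mitosis taken 0.5 h after nocodazole release, G1/S directly after double thymidine block.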

| Sequence | melting temperature ([1]; cell cycle stage: G1/S) | melting temperature ([1]; cell cycle stage: mitosis) | solubility in G1/S (log2) [2] | solubility change mitosis (log2) [3] | thermal stability score [4, 5] | thermal stability score ([4]; cell cycle stage: mitosis) |
| --- | --- | --- | --- | --- | --- | --- |
| MAIPGRQYGLILPKKTQQLHPVLQKPSVFGNDSDDDDETSVSESLQREAAKKQAMKQTKLEIQKALAEDATVYEYDSIYDEMQKKKEENNPKLLLGKDRKPKYIHNLLKAVEIRKKEQEKRMEKKIQREREMEKGEFDDKEAFVTSAYKKKLQERAEEEEREKRAAALEACLDVTKQKDLSGFYRHLLNQAVGEEEVPKCSFREARSGIKEEKSRGFSNEVSSKNRIPQEKCILQTDVKVEENPDADSDFDAKSSADDEIEETRVNCRREKVIETPENDFKHHRSQNHSRSPSEERGHSTRHHTKGSRTSRGHEKREDQHQQKQSRDQENHYTDRDYRKERDSHRHREASHRDSHWKRHEQEDKPRARDQRERSDRVWKREKDREKYSQREQERDRQQNDQNRPSEKGEKEEKSKAKEEHMKVRKERYENNDKYRDREKREVGVQSSERNQDRKESSPNSRAKDKFLDQERSNKMRNMAKDKERNQEKPSNSESSLGAKHRLTEEGQEKGKEQERPPEAVSKFAKRNNEETVMSARDRYLARQMARVNAKTYIEKEDD [NSRP1] | 55.3 °C | 55.6 °C | -0.433 | 0.242 | 0.0783 | -1.16 |
| MAIRKKSTKSPPVLSHEFVLQNHADIVSCVAMVFLLGLMFEITAKASIIFVTLQYNVTLPATEEQATESVSLYYYGIKDLATVFFYMLVAIIIHAVIQEYMLDKINRRMHFSKTKHSKFNESGQLSAFYLFACVWGTFILISENYISDPTILWRAYPHNLMTFQMKFFYISQLAYWLHAFPELYFQKTKKEDIPRQLVYIGLYLFHIAGAYLLNLNHLGLVLLVLHYFVEFLFHISRLFYFSNEKYQKGFSLWAVLFVLGRLLTLILSVLTVGFGLARAENQKLDFSTGNFNVLAVRIAVLASICVTQAFMMWKFINFQLRRWREHSAFQAPAVKKKPTVTKGRSSKKGTENGVNGTLTSNVADSPRNKKEKSS [TRAM1] | 52.2 °C | 52.6 °C | -0.0229 | -0.0373 | -0.164 | -0.999 |
| MAKGDPKKPKGKMSAYAFFVQTCREEHKKKNPEVPVNFAEFSKKCSERWKTMSGKEKSKFDEMAKADKVRYDREMKDYGPAKGGKKKKDPNAPKRPPSGFFLFCSEFRPKIKSTNPGISIGDVAKKLGEMWNNLNDSEKQPYITKAAKLKEKYEKDVADYKSKGKFDGAKGPAKVARKKVEEEDEEEEEEEEEEEEEEDE [HMGB3] | 57 °C | 57.3 °C | 0.667 | 0.349 | 1.34 | 0.604 |
| MAKIAKTHEDIEAQIREIQGKKAALDEAQGVGLDSTGYYDQEIYGGSDSRFAGYVTSIAATELEDDDDDYSSSTSLLGQKKPGYHAPVALLNDIPQSTEQYDPFAEHRPPKIADREDEYKKHRRTMIISPERLDPFADGGKTPDPKMNARTYMDVMREQHLTKEEREIRQQLAEKAKAGELKVVNGAAASQPPSKRKRRWDQTADQTPGATPKKLSSWDQAETPGHTPSLRWDETPGRAKGSETPGATPGSKIWDPTPSHTPAGAATPGRGDTPGHATPGHGGATSSARKNRWDETPKTERDTPGHGSGWAETPRTDRGGDSIGETPTPGASKRKSRWDETPASQMGGSTPVLTPGKTPIGTPAMNMATPTPGHIMSMTPEQLQAWRWEREIDERNRPLSDEELDAMFPEGYKVLPPPAGYVPIRTPARKLTATPTPLGGMTGFHMQTEDRTMKSVNDQPSGNLPFLKPDDIQYFDKLLVDVDESTLSPEEQKERKIMKLLLKIKNGTPPMRKAALRQITDKAREFGAGPLFNQILPLLMSPTLEDQERHLLVKVIDRILYKLDDLVRPYVHKILVVIEPLLIDEDYYARVEGREIISNLAKAAGLATMISTMRPDIDNMDEYVRNTTARAFAVVASALGIPSLLPFLKAVCKSKKSWQARHTGIKIVQQIAILMGCAILPHLRSLVEIIEHGLVDEQQKVRTISALAIAALAEAATPYGIESFDSVLKPLWKGIRQHRGKGLAAFLKAIGYLIPLMDAEYANYYTREVMLILIREFQSPDEEMKKIVLKVVKQCCGTDGVEANYIKTEILPPFFKHFWQHRMALDRRNYRQLVDTTVELANKVGAAEIISRIVDDLKDEAEQYRKMVMETIEKIMGNLGAADIDHKLEEQLIDGILYAFQEQTTEDSVMLNGFGTVVNALGKRVKPYLPQICGTVLWRLNNKSAKVRQQAADLISRTAVVMKTCQEEKLMGHLGVVLYEYLGEEYPEVLGSILGALKAIVNVIGMHKMTPPIKDLLPRLTPILKNRHEKVQENCIDLVGRIADRGAEYVSAREWMRICFELLELLKAHKKAIRRATVNTFGYIAKAIGPHDVLATLLNNLKVQERQNRVCTTVAIAIVAETCSPFTVLPALMNEYRVPELNVQNGVLKSLSFLFEYIGEMGKDYIYAVTPLLEDALMDRDLVHRQTASAVVQHMSLGVYGFGCEDSLNHLLNYVWPNVFETSPHVIQAVMGALEGLRVAIGPCRMLQYCLQGLFHPARKVRDVYWKIYNSIYIGSQDALIAHYPRIYNDDKNTYIRYELDYIL [SF3B1] | 50.9 °C | 50.4 °C | -0.486 | 0.299 | -1.78 | -0.315 |
| MAKRSRGPGRRCLLALVLFCAWGTLAVVAQKPGAGCPSRCLCFRTTVRCMHLLLEAVPAVAPQTSILDLRFNRIREIQPGAFRRLRNLNTLLLNNNQIKRIPSGAFEDLENLKYLYLYKNEIQSIDRQAFKGLASLEQLYLHFNQIETLDPDSFQHLPKLERLFLHNNRITHLVPGTFNHLESMKRLRLDSNTLHCDCEILWLADLLKTYAESGNAQAAAICEYPRRIQGRSVATITPEELNCERPRITSEPQDADVTSGNTVYFTCRAEGNPKPEIIWLRNNNELSMKTDSRLNLLDDGTLMIQNTQETDQGIYQCMAKNVAGEVKTQEVTLRYFGSPARPTFVIQPQNTEVLVGESVTLECSATGHPPPRISWTRGDRTPLPVDPRVNITPSGGLYIQNVVQGDSGEYACSATNNIDSVHATAFIIVQALPQFTVTPQDRVVIEGQTVDFQCEAKGNPPPVIAWTKGGSQLSVDRRHLVLSSGTLRISGVALHDQGQYECQAVNIIGSQKVVAHLTVQPRVTPVFASIPSDTTVEVGANVQLPCSSQGEPEPAITWNKDGVQVTESGKFHISPEGFLTINDVGPADAGRYECVARNTIGSASVSMVLSVNVPDVSRNGDPFVATSIVEAIATVDRAINSTRTHLFDSRPRSPNDLLALFRYPRDPYTVEQARAGEIFERTLQLIQEHVQHGLMVDLNGTSYHYNDLVSPQYLNLIANLSGCTAHRRVNNCSDMCFHQKYRTHDGTCNNLQHPMWGASLTAFERLLKSVYENGFNTPRGINPHRLYNGHALPMPRLVSTTLIGTETVTPDEQFTHMLMQWGQFLDHDLDSTVVALSQARFSDGQHCSNVCSNDPPCFSVMIPPNDSRARSGARCMFFVRSSPVCGSGMTSLLMNSVYPREQINQLTSYIDASNVYGSTEHEARSIRDLASHRGLLRQGIVQRSGKPLLPFATGPPTECMRDENESPIPCFLAGDHRANEQLGLTSMHTLWFREHNRIATELLKLNPHWDGDTIYYETRKIVGAEIQHITYQHWLPKILGEVGMRTLGEYHGYDPGINAGIFNAFATAAFRFGHTLVNPLLYRLDENFQPIAQDHLPLHKAFFSPFRIVNEGGIDPLLRGLFGVAGKMRVPSQLLNTELTERLFSMAHTVALDLAAINIQRGRDHGIPPYHDYRVYCNLSAAHTFEDLKNEIKNPEIREKLKRLYGSTLNIDLFPALVVEDLVPGSRLGPTLMCLLSTQFKRLRDGDRLWYENPGVFSPAQLTQIKQTSLARILCDNADNITRVQSDVFRVAEFPHGYGSCDEIPRVDLRVWQDCCEDCRTRGQFNAFSYHFRGRRSLEFSYQEDKPTKKTRPRKIPSVGRQGEHLSNSTSAFSTRSDASGTNDFREFVLEMQKTITDLRTQIKKLESRLSTTECVDAGGESHANNTKWKKDACTICECKDGQVTCFVEACPPATCAVPVNIPGACCPVCLQKRAEEKP [PXDN] | 54 °C | 54.5 °C | -0.0223 | -0.103 | 3.4 | 3.61 |
| MAKTVAYFYDPDVGNFHYGAGHPMKPHRLALTHSLVLHYGLYKKMIVFKPYQASQHDMCRFHSEDYIDFLQRVSPTNMQGFTKSLNAFNVGDDCPVFPGLFEFCSRYTGASLQGATQLNNKICDIAINWAGGLHHAKKFEASGFCYVNDIVIGILELLKYHPRVLYIDIDIHHGDGVQEAFYLTDRVMTVSFHKYGNYFFPGTGDMYEVGAESGRYYCLNVPLRDGIDDQSYKHLFQPVINQVVDFYQPTCIVLQCGADSLGCDRLGCFNLSIRGHGECVEYVKSFNIPLLVLGGGGYTVRNVARCWTYETSLLVEEAISEELPYSEYFEYFAPDFTLHPDVSTRIENQNSRQYLDQIRQTIFENLKMLNHAPSVQIHDVPADLLTYDRTDEADAEERGPEENYSRPEAPNEFYDGDHDNDKESDVEI [HDAC3] |  | 52.6 °C | -0.055 | -0.161 | 1.43 | 1.96 |
